# Data: patent US20250043302A1, “MUTATED HYDROXYPHENYLPYRUVATE DIOXYGENASE POLYPEPTIDE, AND CODING GENE AND USE THEREOF” (BEIJING DABEINONG BIOTECHNOLOGY CO., LTD., priority 2021, published 2025)
# Assays:
# [1] = tested on: Arabidopsis thaliana T1 plants; test: Topramezone tolerance of transgenic Arabidopsis thaliana T1 plants (spray, bleached leaf area grade, damage score); type: in vivo; conditions: for Classification and statistics of the grade of pesticide damage Grade 0: number of plants at grade 0; for Classification and statistics of the grade of pesticide damage Grade 1: number of plants at grade 1; for Classification and statistics of the grade of pesticide damage Grade 2: number of plants at grade 2; for Classification and statistics of the grade of pesticide damage Grade 3: number of plants at grade 3; for Classification and statistics of the grade of pesticide damage: Grade 0 / Classification and statistics of the grade of pesticide damage: Grade 1 / Classification and statistics of the grade of pesticide damage: Grade 2 / Classification and statistics of the grade of pesticide damage: Grade 3: number of plants; for Grade 0 (classification and statistics of the grade of pesticide damage; number of plants) / Grade 1 (classification and statistics of the grade of pesticide damage; number of plants) / Grade 2 (classification and statistics of the grade of pesticide damage; number of plants) / Grade 3 (classification and statistics of the grade of pesticide damage; number of plants): 16 plants
# How it was run: (§1)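 Damage was assessed by bleaching grade (0 none; 1 <50%; 2 >50%; 3 100% of leaf area) one week after spraying. Sprays on 18-day-old T1 and wild-type plants used field-rate multiples: topramezone 25–200, isoxaflutole 35–280, mesotrione 52.5–420 g ai/ha.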
# [2] = tested on: Arabidopsis thaliana T1 plants; test: Mesotrione tolerance of transgenic Arabidopsis thaliana T1 plants (spray, bleached leaf area grade, damage score); type: in vivo; set-up: Scores: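 damage score 0-100 computed as Σ(N×S)/(T×M)×100 over grades 0-3 with higher meaning more damage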; conditions: for Classification and statistics of the grade of pesticide damage: Grade 0 / Classification and statistics of the grade of pesticide damage: Grade 1 / Classification and statistics of the grade of pesticide damage: Grade 2 / Classification and statistics of the grade of pesticide damage: Grade 3: number of plants
# How it was run: as §1
# [3] = Table 10, topramezone 100 g ai/ha (4×)
# [4] = Table 10, topramezone 200 g ai/ha (8×)
# [5] = topramezone 100 g ai/ha (4×), 7 DAT, Table 1
# [6] = topramezone 200 g ai/ha (8×), 7 DAT, Table 1
# [7] = topramezone 100 g ai/ha (4x field concentration), Arabidopsis thaliana T1 plants
# [8] = topramezone 200 g ai/ha (8x field concentration), Arabidopsis thaliana T1 plants
# [9] = mesotrione 210 g ai/ha (two-fold field concentration), 7 DAT, Table 3
# [10] = mesotrione 210 g ai/ha, number of plants in grade
# [11] = mesotrione 420 g ai/ha (4×), 7 DAT, Table 3
# [12] = mesotrione 420 g ai/ha, number of plants in grade
molecule,measurement,setting,value
"AsHPPD-02: nucleotide sequence encoding Avena sativa wild-type HPPD; vector DBN11727 (nucleic acid, AsHPPD-02 Nucleotide Sequence, vector DBN11727) DNA: ATGCCACCTACTCCAGCTACAGCTACTGGTGCTGCTGCTGCTGCCGTTACTCCTGAGCACGCTGCCAGGTCATTCCCCAGGGTGGTTCGCGTGAACCCCAGATCTGATAGGTTCCCAGTTCTGAGCTTCCACCATGTTGAGCTGTGGTGCGCTGATGCTGCTTCTGCTGCTGGCAGGTTCTCTTTCGCTCTTGGTGCTCCACTCGCTGCTAGATCTGATCTGTCTACAGGAAATAGCGCTCATGCCTCACTCCTGCTTCGCTCAGGTGCTTTGGCCTTCCTCTTCACCGCTCCATATGCTCCCCCACCTCAGGAGGCTGCTACTGCTGCTGCTACAGCCTCCATTCCAAGCTTCTCAGCTGATGCCGCTAGAACCTTCGCTGCTGCTCATGGACTTGCCGTGAGGTCTGTTGGTGTTCGCGTGGCTGATGCTGCTGAGGCTTTCAGAGTTTCCGTTGCCGGCGGAGCTAGGCCAGCTTTCGCTCCTGCTGATTTGGGACATGGTTTCGGCCTGGCTGAGGTTGAGCTTTACGGTGACGTGGTTCTCCGCTTCGTGTCTTACCCAGATGAGACTGACCTGCCTTTCCTTCCCGGCTTCGAGAGAGTTTCCTCTCCTGGTGCCGTGGATTACGGCCTGACAAGGTTCGACCACGTGGTTGGAAACGTTCCCGAGATGGCTCCAGTGATCGATTACATGAAGGGCTTCCTTGGATTCCATGAGTTCGCCGAGTTCACTGCTGAGGACGTGGGAACCACTGAGTCCGGTTTGAACTCTGTGGTTCTCGCCAACAATTCTGAGGCTGTTTTGCTCCCTCTGAATGAGCCTGTGCATGGAACCAAGAGGAGAAGCCAGATTCAAACTTACCTGGAGTACCACGGTGGCCCTGGAGTTCAGCATATCGCCCTTGCTTCTAATGATGTGTTGCGCACACTCAGAGAGATGCGCGCCAGAACCCCCATGGGAGGTTTCGAGTTCATGGCCCCACCACAGGCTAAGTACTACGAGGGCGTTAGAAGGATTGCTGGAGACGTGTTGAGCGAGGAGCAGATCAAGGAGTGCCAAGAGCTGGGTGTTCTTGTGGATAGGGATGACCAGGGCGTTCTGCTTCAAATTTTCACTAAGCCAGTGGGCGACCGCCCTACATTCTTCCTTGAGATGATTCAAAGAATCGGCTGCATGGAGAAGGATGAGGTTGGACAGGAGTACCAAAAGGGCGGATGCGGTGGCTTCGGAAAGGGTAACTTCAGCGAGTTGTTCAAGTCAATCGAGGACTACGAGAAGAGCCTCGAGGTGAAGCAGTCAGTGGTTGCCCAAAAGTCCTGA",Resistance evaluation,[1]; [3],Non-resistant
same,Classification and statistics of the grade of pesticide damage Grade 0,[1]; [3],0
same,Classification and statistics of the grade of pesticide damage Grade 1,[1]; [3],0
same,Classification and statistics of the grade of pesticide damage Grade 2,[1]; [3],4
same,Classification and statistics of the grade of pesticide damage Grade 3,[1]; [3],12
same,Scores,"[1]; Table 10, topramezone 100 g ai/ha (4×), pesticide damage score",92
same,Resistance evaluation,[1]; [4],Non-resistant
same,Classification and statistics of the grade of pesticide damage Grade 0,[1]; [4],0
same,Classification and statistics of the grade of pesticide damage Grade 1,[1]; [4],0
same,Classification and statistics of the grade of pesticide damage Grade 2,[1]; [4],0
same,Classification and statistics of the grade of pesticide damage Grade 3,[1]; [4],16
same,Scores,"[1]; Table 10, topramezone 200 g ai/ha (8×), pesticide damage score",100
same,tolerance to topramezone (in words),[1]; in vivo,no tolerance
same,Classification and statistics of the grade of pesticide damage: Grade 0,[1]; [5],0
same,Classification and statistics of the grade of pesticide damage: Grade 1,[1]; [5],0
same,Classification and statistics of the grade of pesticide damage: Grade 2,[1]; [5],4
same,Classification and statistics of the grade of pesticide damage: Grade 3,[1]; [5],12
same,Classification and statistics of the grade of pesticide damage: Grade 0,[1]; [6],0
same,Classification and statistics of the grade of pesticide damage: Grade 1,[1]; [6],0
same,Classification and statistics of the grade of pesticide damage: Grade 2,[1]; [6],0
same,Classification and statistics of the grade of pesticide damage: Grade 3,[1]; [6],16
same,Scores,"[1]; pesticide damage score 0-100, topramezone 100 g ai/ha (4×), 7 DAT, Table 1",92
same,Scores,"[1]; pesticide damage score 0-100, topramezone 200 g ai/ha (8×), 7 DAT, Table 1",100
same,Resistance evaluation,[1]; [7],Non-resistant
same,Scores,[1]; [7],92
same,Grade 0 (classification and statistics of the grade of pesticide damage; number of plants),[1]; [7],0
same,Grade 1 (classification and statistics of the grade of pesticide damage; number of plants),[1]; [7],0
same,Grade 2 (classification and statistics of the grade of pesticide damage; number of plants),[1]; [7],4
same,Grade 3 (classification and statistics of the grade of pesticide damage; number of plants),[1]; [7],12
same,Resistance evaluation,[1]; [5],non-resistant (non-resistant plants (scores 68-100))
same,Resistance evaluation,[1]; [8],Non-resistant
same,Scores,[1]; [8],100
same,Grade 0 (classification and statistics of the grade of pesticide damage; number of plants),[1]; [8],0
same,Grade 1 (classification and statistics of the grade of pesticide damage; number of plants),[1]; [8],0
same,Grade 2 (classification and statistics of the grade of pesticide damage; number of plants),[1]; [8],0
same,Grade 3 (classification and statistics of the grade of pesticide damage; number of plants),[1]; [8],16
same,Resistance evaluation,[1]; [6],non-resistant (non-resistant plants (scores 68-100))
same,Resistance evaluation,"[2]; Table 9, mesotrione 210 g ai/ha (2×)",Non-resistant
same,Classification and statistics of the grade of pesticide damage Grade 0,"[2]; Table 9, mesotrione 210 g ai/ha (2×), number of plants at grade 0",0
same,Classification and statistics of the grade of pesticide damage Grade 1,"[2]; Table 9, mesotrione 210 g ai/ha (2×), number of plants at grade 1",0
same,Classification and statistics of the grade of pesticide damage Grade 2,"[2]; Table 9, mesotrione 210 g ai/ha (2×), number of plants at grade 2",0
same,Classification and statistics of the grade of pesticide damage Grade 3,"[2]; Table 9, mesotrione 210 g ai/ha (2×), number of plants at grade 3",16
same,Scores,"[2]; Table 9, mesotrione 210 g ai/ha (2×), pesticide damage score",100
same,Resistance evaluation,"[2]; Table 9, mesotrione 420 g ai/ha (4×)",Non-resistant
same,Classification and statistics of the grade of pesticide damage Grade 0,"[2]; Table 9, mesotrione 420 g ai/ha (4×), number of plants at grade 0",0
same,Classification and statistics of the grade of pesticide damage Grade 1,"[2]; Table 9, mesotrione 420 g ai/ha (4×), number of plants at grade 1",0
same,Classification and statistics of the grade of pesticide damage Grade 2,"[2]; Table 9, mesotrione 420 g ai/ha (4×), number of plants at grade 2",0
same,Classification and statistics of the grade of pesticide damage Grade 3,"[2]; Table 9, mesotrione 420 g ai/ha (4×), number of plants at grade 3",16
same,Scores,"[2]; Table 9, mesotrione 420 g ai/ha (4×), pesticide damage score",100
same,Resistance evaluation,"[2]; Table 12, mesotrione 210 g ai/ha (2×)",Non-resistant
same,Classification and statistics of the grade of pesticide damage Grade 0,"[2]; Table 12, mesotrione 210 g ai/ha (2×), number of plants at grade 0",0
same,Classification and statistics of the grade of pesticide damage Grade 1,"[2]; Table 12, mesotrione 210 g ai/ha (2×), number of plants at grade 1",0
same,Classification and statistics of the grade of pesticide damage Grade 2,"[2]; Table 12, mesotrione 210 g ai/ha (2×), number of plants at grade 2",0
same,Classification and statistics of the grade of pesticide damage Grade 3,"[2]; Table 12, mesotrione 210 g ai/ha (2×), number of plants at grade 3",16
same,Scores,"[2]; Table 12, mesotrione 210 g ai/ha (2×), pesticide damage score",100
same,Resistance evaluation,"[2]; Table 12, mesotrione 420 g ai/ha (4×)",Non-resistant
same,Classification and statistics of the grade of pesticide damage Grade 0,"[2]; Table 12, mesotrione 420 g ai/ha (4×), number of plants at grade 0",0
same,Classification and statistics of the grade of pesticide damage Grade 1,"[2]; Table 12, mesotrione 420 g ai/ha (4×), number of plants at grade 1",0
same,Classification and statistics of the grade of pesticide damage Grade 2,"[2]; Table 12, mesotrione 420 g ai/ha (4×), number of plants at grade 2",0
same,Classification and statistics of the grade of pesticide damage Grade 3,"[2]; Table 12, mesotrione 420 g ai/ha (4×), number of plants at grade 3",16
same,Scores,"[2]; Table 12, mesotrione 420 g ai/ha (4×), pesticide damage score",100
same,tolerance to mesotrione (in words),[2]; in vivo,no tolerance
same,Resistance evaluation,[2]; mesotrione 210 g ai/ha,Non-resistant
same,Scores,[2]; mesotrione 210 g ai/ha,100
same,Resistance evaluation,[2]; [9],non-resistant (non-resistant plants (scores 68-100))
same,Classification and statistics of the grade of pesticide damage Grade 0,[2]; [10],0
same,Classification and statistics of the grade of pesticide damage Grade 1,[2]; [10],0
same,Classification and statistics of the grade of pesticide damage Grade 2,[2]; [10],0
same,Classification and statistics of the grade of pesticide damage Grade 3,[2]; [10],16
same,Resistance evaluation,[2]; mesotrione 420 g ai/ha,Non-resistant
same,Scores,[2]; mesotrione 420 g ai/ha,100
same,Resistance evaluation,[2]; [11],non-resistant (non-resistant plants (scores 68-100))
same,Classification and statistics of the grade of pesticide damage Grade 0,[2]; [12],0
same,Classification and statistics of the grade of pesticide damage Grade 1,[2]; [12],0
same,Classification and statistics of the grade of pesticide damage Grade 2,[2]; [12],0
same,Classification and statistics of the grade of pesticide damage Grade 3,[2]; [12],16
same,Classification and statistics of the grade of pesticide damage: Grade 0,[2]; [9],0
same,Classification and statistics of the grade of pesticide damage: Grade 1,[2]; [9],0
same,Classification and statistics of the grade of pesticide damage: Grade 2,[2]; [9],0
same,Classification and statistics of the grade of pesticide damage: Grade 3,[2]; [9],16
same,Classification and statistics of the grade of pesticide damage: Grade 0,[2]; [11],0
same,Classification and statistics of the grade of pesticide damage: Grade 1,[2]; [11],0
same,Classification and statistics of the grade of pesticide damage: Grade 2,[2]; [11],0
same,Classification and statistics of the grade of pesticide damage: Grade 3,[2]; [11],16
same,Scores,"[2]; pesticide damage score 0-100, mesotrione 210 g ai/ha (two-fold field concentration), 7 DAT, Table 3",100
same,Scores,"[2]; pesticide damage score 0-100, mesotrione 420 g ai/ha (4×), 7 DAT, Table 3",100
